Assay results as given in US20220073631A1.

Assays:
[1] = target: hIL-4Rα-ECD (wild-type hIL-4Rα extracellular domain with C-terminus his-tag) (human) (UniProt P24394); assay: SPR, Biacore T200, by the methods of Example 2; mean of three experiments
[2] = target: human IL-4Rα (Shanghai Novoprotein Technology Co., Ltd) (human) (UniProt P24394); assay: SPR, Biacore T200, antibody captured on protein A, antigen as analyte, 25 C, 1:1 model

Kd [1]: 0.0588 nM
koff [1]: 4.29e-05 s⁻¹
kon [1]: 707000 M⁻¹ s⁻¹
Kd [2]: 0.136 nM
koff [2]: 0.00011 s⁻¹
kon [2]: 808000 M⁻¹ s⁻¹
B1: Dupilumab (antibody, INN chains, looked up, V domains shown)
VH: EVQLVESGGGLEQPGGSLRLSCAGSGFTFRDYAMTWVRQAPGKGLEWVSSISGSGGNTYYADSVKGRFTISRDNSKNTLYLQMNSLRAEDTAVYYCAKDRLSITIRPRYYGLDVWGQGTTVTVSS
VL: DIVMTQSPLSLPVTPGEPASISCRSSQSLLYSIGYNYLDWYLQKSGQSPQLLIYLGSNRASGVPDRFSGSGSGTDFTLKISRVEAEDVGFYYCMQALQTPYTFGQGTKLEIKR
